Test results reported in the DeepSol protein solubility set.

Assay: soluble on expression in E. coli; label from the status in PepcDB or PDB records

Row | Sequence | soluble on expression in E. coli
1 | MGSDKIHHHHHHMNKNMIKGMIVFAAIAEKGSMSAAAQQLNLSSSAVSQQVTKLEMDMGISLFHRNTRNLTLTEAGSLFYENCRKVIAIVESTEQKLNNLKGIPSGELKIAAPIGFGGGLLSEPFNYLLAAHPQISLNLLLQDGPIDIVNEGIDLAICIGPLSDSNLIARHLADWRMLLCASPDYLPMHKIFKHPAELAAFNRINHPCANSETLTHVRNKECFELTSQRITVNNMQALIQLTLDGLGFAALPEPEVHKYLESGQLVTLLPEWSLNTYSVYSVTSARDKQPAKVKEALNTLSQYFSQANFNPAYHFKQCVQKDGTKGSVTNILPIKPKQASHHADVDHAS | not soluble
2 | MGSDKIHHHHHHMKIGVNSYIVREMTGRGFSLDELNVDFVELGFDDAEIIKNDGEINMKILKDLSGLGIEFTIHAPTSDGKNFPIDFGEYFPIDLGTYRKTPIIKRMKKIIKVAEYLDASVIVVHGGDIKESYTKAYVNTLRNLRELKPITEDSGVKIVVENLFEGRIGALPHEVLSFAKEGFEVCFDIGHAFLTAIRTGLRVDEFEMLFPYTTHLHLHDNNGFRDEHKPIGEGIIGFSYVERVLELTNPERAVLEIRRYNKENSVLLNVEVLQEISRDFSQMKRLTEVVEP | not soluble
3 | GMTQDNASGDQVSKQHKAFLRKLYLAHLMDDARHNLLSLGKLTGMPRRTLQDAIASFADIGIEVEFVQDGERHNAGYYRIRTWGPISSAWMDTHVDEVKSLLGVDDAVGQATAGNGA | soluble
4 | MSLADFLRHRREALRPEDVGLSPGARRRARGLRREEVAALALMSTDYYTRLEQRRGPQPSERMLDSLARALRLTRAERDYLYRVAGHNAPASLSDPSPVAPALLRVLDRLDDTPALILTELGETLVQNRMAVALFGDASRHTGLARSAVYRWFTDPSERSVYPESDWGRQSRAQVANLRAAYGMRGARSHAGALVRILQQSNEEFAELWERHEVAQRFEDHKTLIHPEVGAIEVDCQALFTEDQSQTLLVLTAPPRTESHEKLQLLAVLGLHRFTEAEDQVREGHHHHHH | not soluble
5 | MSSNFRHQLLSLSLLVGIAAPWAAFAQAPISSVGSGSVEDRVTQLERISNAHSQLLTQLQQQLSDNQSDIDSLRGQIQENQYQLNQVVERQKQILLQIDSLSSGGAAAQSTSGDQSGAAASTTPTADAGTANAGAPVKSGNANTDYNAAIALVQDKSRQDDAMVAFQNFIKNYPDSTYLPNANYWLGQLNYNKGKKDDAAYYFASVVKNYPKSPKAADAMFKVGVIMQDKGDTAKAKAVYQQVISKYPGTDGAKQAQKRLNAM | soluble
6 | MSLKPVVVMTQTNDMQSDLVSIIHKPFIDIKPLNFDIHLLNQRYDWLIFSSKNAVKFFYKYLKGINVDNIAVIGSKTAQYCESLGIRVDFMPNDFSQEGFLKSFNQTNQKILLPSSELARPLLLAALSKDNEVVKIDLYTSVPNKQNIQDVKEMIEHQQIDALTFSSSSAVRYYFNEGFVPKFKSYFAIGEQTARTIKTYQQPVTIAEIQTLESLIEKILESRGEGHHHHHH | soluble
7 | MEKISDLIECIAYEKNLPKEMISKVIQGCLLKMAQNELDPLARYLVVEENKQLQLIQLVEVLEDGDERLVNDPSKYISLSKAKEMDPSVKIKDELSYSLSLESMKQGAINRLFKDLQYQLEKALEDSHFEAFQKRLNSVLMGQVILVDHNQNTFIEIEQQFQGVLSMRHRIKGESFKVGDSIKAVLTQVKRTKKGLLLELSRTTPKMLEALLELEVPEIKDKEIEIIHCARIPGNRAKVSFFSHNARIDPIGAAVGVKGVRINAISNELNKENIDCIEYSNVPEIYITLALAPAKILSVEIKKIPIEELNAEEKESIQERFIVNNHLQKAKVRLLDIEKSKAIGKGGVNVCLASMLTGYHIEFETIPSVKENAENESEKETPKVGVEALESLFKNLEHHHHHH | soluble
8 | MAPINGIRDDDAASIRLRDSFRDEVSKRMGELLLKGQTMLDEYCPTCSGILMEDRALVRRCVTCELFREKSSVIVGEVSLQDEDLNEAVNNKIPTPAAPVNKPAKKAVLQKSAPAKKKEAVPAAAEPSSSDTIESATTAVLQKLEWATDRLNSTEEVARVMDFLSVIQKSAETLKALRI | not soluble
9 | MGSDKIHHHHHHMSNTVRAISPDITLFNKTLTFQEISQNTREAVIYIHGGAWNDPENTPNDFNQLANTIKSMDTESTVCQYSIEYRLSPEITNPRNLYDAVSNITRLVKEKGLTNINMVGHSVGATFIWQILAALKDPQEKMSEAQLQMLGLLQIVKRVFLLDGIYSLKELLIEYPEYDCFTRLAFPDGIQMYEEEPSRVMPYVKKALSRFSIDMHLVHSYSDELLTLRQTNCLISCLQDYQLSFKLYLDDLGLHNDVYKNGKVAKYIFDNIC | soluble
10 | MGSDKIHHHHHHMLQFIPVFDGNTIAVRASGKLTLEDFQQFFPQLETQIKRLGKISLLFEFDNFSGWDLDAAIDDIKFGMKHLSDFERIAMVGDKSWEHWMALIAKPFLISSEVRYFNRENLQQAWDWLREKQEFEKAVEQLQPYQNIVVAVDFSLYSKHACKRAIELANYYQASLTLLNVVPEVLAYTLYGDPVGYNVVDLDIIKDQNKKNIDAAQFQMKAFVNDLDTNFPIETKVICGEINYGVVSFLEAQHIDLAIFGAKKKKGINKLLGSVPHYVQNHSRCEILIVPVQGPVF | not soluble
11 | MGSDKIHHHHHHATCCAANGEGNCPEGTCRKECTNACNTNNQKNKTMAYSKKYTNADFYKDGKFQQDVAMEAMKDMFAFYDVPFTELMAKDMWVTDFGLGDFENVGMGGIFWINDPEYKYFAHAIYLLPGQMIPEHAHVKTDFPAKHESWMVEKGWVYNFSEVGDETPNAPAIPAGHGPIKSKNFVVQKVGDVLRLKKLETFHFMMAGPEGAIVDEWACYHDNAGLRFTNQKAAL | not soluble
12 | MSLKKLILTTAALALSAGMAMADTVRMGTEGAYPPYNFINDAGEVDGFERELGDELCKRAGLTCEWVKNDWDSIIPNLVSGNYDTIIAGMSITDERDEVIDFTQNYIPPTASSYVATSDGADLSGIVAAQTATIQAGYIAESGATLVEFATPEETIAAVRNGEADAVFADRDYLVPIVAESGGELMFVGDDVPLGGGVGMGLRESDGELRGKFDAAITSMKEDGTLNTMIKKWFGEDAAVYEEGHHHHHH | soluble
13 | SDVIKTQQISARTIEKVIVHPLVLLSIVDHYNRVAKDTSKRVVGVLLGSSSRGTVDVTNSYAVPFEEDDKDTSIWFLDHNYHESMFHMFKRINAKEHIVGWYSTGPKLRENDLDVHALFNGYVPNPVLVIIDVQPKELGIPTKAYYAVEEVKENATQKSQQVFVHVPTEIAAHEVEEIGVEHLLRDVKDTTISTLATEVTAKLTALKGLDARLREIRTYLDLVIEGKLPLNHEILYHLQDVFNLLPNLNVNELVKAFAVKTNDMMLVIYLSSLIRSVIALHSLINNKLLNKEHEKAEDSKPVDIPLITES | soluble
14 | MAHHHHHHMNGTRRFSAAPVNFDRFIALAHSYSRSLSPDRELDQMLRPFQGRAAASTSTATRESTASRVATPQRRHQQMRNGELIDKGSVSTEAEVGKPYWGTTESVAMTRSTTASNTVFSTRAATSTSRTVSGGAAETTSAVSTRSSYLVHSSCPVGEETQELGSGSYSADEVDPLLQAAMQLGSPLYDPVKRQFVCWQLHALEKRPRAAYGDVEGVSCDFCGHTDWLEGVPERATSSPSASATVANADEGKMDTHAPSAAASFTAHARFFYNCSACQVDVCQACLEEVRSDERLHVPCFQCQRCGGYETRQNAPLHRCAEVTRISDDEGSTGVQALLTSPRSNVDASQALPAAPATSSPKYRGVPVGRPVRLGLCRRFQQAVEAVAAPDTEIAAHAGKIANSTPHRKRKRASPEAALVPKQRSGKTTNDTAEVFRVSDVSDKSCRKVRRASASALPKPAPPKQEADDADGDASRALVEAALLPFARYEVHLTPRTAEEVGEVGRIAREQHLVCSPLPSLAKTCVFYFTTRLAAETCVDRATAASLDAILKQSVTPVCRT | not soluble
15 | GMKDNYDAPESMLTGRVMYNGEALQLRGNEAVQLQLYQHGYAKHDPINVYVNQDGMYSANLFDGEYQMITKSGNGPWTSEGRDTINVTVAGNTVQDVEVTPYYLVRDAQMTLEGNKVNASFKVEKVAGGGIDRVFFMLSTTQFVNDAEHNVDRYDETDNLDAYDETGKLYTFATRDYTDNSMFQTALKRGTLFGRICIWPKGSDQGIYSKVIRLK | soluble
16 | MGRTTTPRDGDAALPPEYHGLHVAPVQPGHEAIEWLTPTNRSDRVRVVQHTCECRTTIYELCRSGGLMFIRRTVRTAKGARVHETERLITARMERLWMRLLLGQAR | not soluble
